Holding throughout (assay): MST
In test [1] the target is T1, MPP5 PDZ domain (residues 238-336) (human, UniProt Q8N3R9 238-336).
T1 sequence: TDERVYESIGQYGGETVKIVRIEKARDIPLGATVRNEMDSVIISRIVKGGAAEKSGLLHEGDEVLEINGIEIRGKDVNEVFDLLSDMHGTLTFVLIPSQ

Test [2] addresses T2, ZO-1 PDZ2 domain (residues 184-264) (human, UniProt Q07157 184-264).
T2 sequence: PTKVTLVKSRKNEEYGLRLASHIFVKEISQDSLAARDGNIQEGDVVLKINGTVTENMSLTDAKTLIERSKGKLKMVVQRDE

Test [3] addresses T3, LNX2 PDZ2 domain (residues 334-426) (human, UniProt Q8N448 334-426).
T3 sequence: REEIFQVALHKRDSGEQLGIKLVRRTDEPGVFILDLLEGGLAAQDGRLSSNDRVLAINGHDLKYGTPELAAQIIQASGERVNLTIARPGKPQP

The target of test [4] is PARD3 PDZ3 domain (residues 582-685) (human, UniProt Q8TEW0 582-685).
Test [5] deals with MLLT4 PDZ domain (residues 961-1056) (human) (UniProt P55196).

Where no end group is shown, it is not given here.

PARD3 PDZ3 domain (residues 582-685), sequence (Q8TEW0 582-685): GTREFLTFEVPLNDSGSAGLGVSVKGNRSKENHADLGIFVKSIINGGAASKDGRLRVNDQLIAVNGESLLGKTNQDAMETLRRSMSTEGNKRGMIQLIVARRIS

What is called Kd is the free concentration of one partner at which half of the binding sites on the other are occupied at equilibrium, for simple one-to-one binding. Read a high Kd as lower affinity. Regarding NLNSSRVLDLLV (not fully specified) [C-terminal SARS-CoV-2-E PBM P71L mutant peptide (12-mer, beta variant B.1.351)], the binding result in test [1] was “binds”. Besides, the Kd is 133 µM in test [2], 47 µM in test [3], greater than 1000 µM in test [4] and greater than 1000 µM in test [5].
